Here are results for 94 variants from the supplement of paper PMC10567573.

To fix the notation:
B1: TOR1AIP2 (parent)
chain: DGAGRTWQDSDTVKLLVDLELSYG
B2: C2CD2L (parent)
chain: EPAGSLRELGVWRSLLRLRATRAG
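Also: lentivirally expressed fusions sorted by FACS into six bins by GFP to DsRed ratio, PSI derived from sequencing read proportions per bin multiplied by bin number.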

Variants of B1 are the subject of the first data set. Kind of data set: protein stability index of a GFP-peptide fusion (GPS, HEK-293T) (PSI 1-6); higher = more stable. The following applies: c terminus: a fixed tail appended.
With DGMGRTWQDSDTVKLLVDLELSYG [A3M], the protein stability index was determined as 2.51. In the case of DGCGRTWQDSDTVKLLVDLELSYG [A3C], the protein stability index worked out at 2.55.

As for DGDGRTWQDSDTVKLLVDLELSYG [A3D], the protein stability index worked out at 1.53.

In the case of DGPGRTWQDSDTVKLLVDLELSYG [A3P], the protein stability index was determined as 1.13. Regarding DGHGRTWQDSDTVKLLVDLELSYG [A3H], the protein stability index is 1.39. In the case of DGVGRTWQDSDTVKLLVDLELSYG [A3V], the protein stability index worked out at 1.41. As for DGKGRTWQDSDTVKLLVDLELSYG [A3K], the protein stability index came to 1.65. On the same count and under the same terms, then DGRGRTWQDSDTVKLLVDLELSYG [A3R], with 1.79; and DGYGRTWQDSDTVKLLVDLELSYG [A3Y], with 2.5; and DGSGRTWQDSDTVKLLVDLELSYG [A3S], with 1.4. Regarding DGEGRTWQDSDTVKLLVDLELSYG [A3E], the protein stability index was found to be 1.81.

On to DGNGRTWQDSDTVKLLVDLELSYG [A3N], for which the protein stability index was 1.73.

For DGIGRTWQDSDTVKLLVDLELSYG [A3I], the protein stability index worked out at 1.09. Same read-out and setting: then DGAQRTWQDSDTVKLLVDLELSYG [G4Q], with 1.43; and DGAFRTWQDSDTVKLLVDLELSYG [G4F], with 2.26.

For the variant DGARRTWQDSDTVKLLVDLELSYG [G4R], the protein stability index stood at 1.93. DGASRTWQDSDTVKLLVDLELSYG [G4S]: the protein stability index was found to be 2.01. The same measure, in the same setting: then DGAMRTWQDSDTVKLLVDLELSYG [G4M], with 1.35; and DGAKRTWQDSDTVKLLVDLELSYG [G4K], with 2.63; and DGAYRTWQDSDTVKLLVDLELSYG [G4Y], with 3.85. On to DGAERTWQDSDTVKLLVDLELSYG [G4E], for which the protein stability index was 2.58. Still for that read-out and setting: then DGAHRTWQDSDTVKLLVDLELSYG [G4H], with 1.62; and DGAPRTWQDSDTVKLLVDLELSYG [G4P], with 2.12.

As to DGACRTWQDSDTVKLLVDLELSYG [G4C], the protein stability index came to 2.02. On the same count and under the same terms, the result for DGAIRTWQDSDTVKLLVDLELSYG [G4I] reads 2.38; that for DGATRTWQDSDTVKLLVDLELSYG [G4T], 2.05. As to DGALRTWQDSDTVKLLVDLELSYG [G4L], the protein stability index is 2.34. Turning to DGAARTWQDSDTVKLLVDLELSYG [G4A], the protein stability index was 1.8. Still for that read-out and setting: the result for DGANRTWQDSDTVKLLVDLELSYG [G4N] reads 2.05; that for DGAVRTWQDSDTVKLLVDLELSYG [G4V], 2.22; that for DHAGRTWQDSDTVKLLVDLELSYG [G2H], 1.07.

On to DSAGRTWQDSDTVKLLVDLELSYG [G2S], for which the protein stability index was 1.84.

As for DYAGRTWQDSDTVKLLVDLELSYG [G2Y], the protein stability index turned out to be 2.53. For DQAGRTWQDSDTVKLLVDLELSYG [G2Q], the protein stability index turned out to be 2.69. Consider DPAGRTWQDSDTVKLLVDLELSYG [G2P], for which the protein stability index worked out at 2.31. On the same count and under the same terms, the result for DLAGRTWQDSDTVKLLVDLELSYG [G2L] reads 1.74; that for DNAGRTWQDSDTVKLLVDLELSYG [G2N], 2.01; that for DTAGRTWQDSDTVKLLVDLELSYG [G2T], 4.39. For the variant DEAGRTWQDSDTVKLLVDLELSYG [G2E], the protein stability index came to 1.91. As for DIAGRTWQDSDTVKLLVDLELSYG [G2I], the protein stability index turned out to be 1.28.

Consider DKAGRTWQDSDTVKLLVDLELSYG [G2K], for which the protein stability index was 3.03. Consider DAAGRTWQDSDTVKLLVDLELSYG [G2A], for which the protein stability index was determined as 2.29. Consider DCAGRTWQDSDTVKLLVDLELSYG [G2C], for which the protein stability index turned out to be 3.68. Same read-out and setting: the result for DRAGRTWQDSDTVKLLVDLELSYG [G2R] reads 2.06; that for DVAGRTWQDSDTVKLLVDLELSYG [G2V], 1.39. On the same count and under the same terms, then DDAGRTWQDSDTVKLLVDLELSYG [G2D], with 2.53; and DGAGATWQDSDTVKLLVDLELSYG [R5A], with 1.95. Take WGAGRTWQDSDTVKLLVDLELSYG [D1W]: the protein stability index was 2.93. Turning to GGAGRTWQDSDTVKLLVDLELSYG [D1G], the protein stability index is 1.68. Same read-out and setting: the result for TGAGRTWQDSDTVKLLVDLELSYG [D1T] reads 3.05. For the variant HGAGRTWQDSDTVKLLVDLELSYG [D1H], the protein stability index is 2.29. Take EGAGRTWQDSDTVKLLVDLELSYG [D1E]: the protein stability index turned out to be 1.69. Regarding QGAGRTWQDSDTVKLLVDLELSYG [D1Q], the protein stability index turned out to be 1.53. Turning to KGAGRTWQDSDTVKLLVDLELSYG [D1K], the protein stability index stood at 4.34. In the case of NGAGRTWQDSDTVKLLVDLELSYG [D1N], the protein stability index was 1.32.

The variants in another data set derive from B2. The data set is described as above. The conditions noted are these: c terminus: a fixed tail appended.
For the variant EPAGSLRELGVTRSLLRLRATRAG [W12T], the protein stability index was 4.02. For EPAGSLRELGVARSLLRLRATRAG [W12A], the protein stability index was 3.02.

Turning to EPAGSLRELGVSRSLLRLRATRAG [W12S], the protein stability index worked out at 4.37. Same read-out and setting: then EPAGSLRELGVERSLLRLRATRAG [W12E], with 3.84. With EPAGSLRELGVQRSLLRLRATRAG [W12Q], the protein stability index amounted to 3.87. As to EPAGSLRELGVCRSLLRLRATRAG [W12C], the protein stability index came to 3.48. With EPAGSLRELGVPRSLLRLRATRAG [W12P], the protein stability index was determined as 3.7. Still for that read-out and setting: then EPAGSLRELGVMRSLLRLRATRAG [W12M], with 2.42; and EPAGSLRELGVDRSLLRLRATRAG [W12D], with 1.9. As to EPAGSLRELGTWRSLLRLRATRAG [V11T], the protein stability index turned out to be 2.95. Turning to EPAGSLRELGYWRSLLRLRATRAG [V11Y], the protein stability index was found to be 2.21. In the case of EPAGSLRELGVWRSLLRIRATRAG [L18I], the protein stability index turned out to be 2.65.

On to EPAGSLRELGVWRSLLRFRATRAG [L18F], for which the protein stability index came out at 2.07.

As to EPAGSLRELGVWRSLLRDRATRAG [L18D], the protein stability index came to 2.64. EPAGSLRELGVWRSLLRSRATRAG [L18S]: the protein stability index was 3.53.

With EPAGSLRELGVWRSLLRCRATRAG [L18C], the protein stability index was 2.67. Take EPAGSLRELGVWRSLLRARATRAG [L18A]: the protein stability index worked out at 3.73. On to EPAGSLRELGVWRSLLRRRATRAG [L18R], for which the protein stability index was determined as 3.54. EPAGSLRELGVWRSLLRWRATRAG [L18W]: the protein stability index turned out to be 1.53. As to EPAGSLRELGVWRSLLRPRATRAG [L18P], the protein stability index was 3.97. With EPAGSLRELGVWRSLLMLRATRAG [R17M], the protein stability index stood at 1.2. Turning to EPAGSLRELGVWRSLLFLRATRAG [R17F], the protein stability index was 1.95. In the case of EPAGSLRELGVWRSLLILRATRAG [R17I], the protein stability index was found to be 2.46. On to EPAGSLRELGVWRSLLDLRATRAG [R17D], for which the protein stability index was found to be 3.73. As for EPAGSLRELGVWRSLLLLRATRAG [R17L], the protein stability index amounted to 1.53. Turning to EPAGSLRELGVWRSLLCLRATRAG [R17C], the protein stability index came out at 2.15. For EPAGSLRELGVWRSLLHLRATRAG [R17H], the protein stability index worked out at 2.65. For the variant EPAGSLRELGVWRSLLELRATRAG [R17E], the protein stability index worked out at 3.13. The same measure, in the same setting: the result for EPAGSLRELGVWRSLLSLRATRAG [R17S] reads 3.04; that for EPAGSLRELGVWRSLLTLRATRAG [R17T], 2.3.

For EPAGSLRELGVWRSLLALRATRAG [R17A], the protein stability index worked out at 2.91. On to EPAGSLRELGVWRSLLWLRATRAG [R17W], for which the protein stability index came to 1.6. As for EPAGSLRELGVWRSLLGLRATRAG [R17G], the protein stability index was 3.26. For EPAGSLRELGVWRSLLRLRATKAG [R22K], the protein stability index amounted to 2.66. Take EPAGSLRELGVWRSLLRLRATYAG [R22Y]: the protein stability index stood at 1.34. On to EPAGSLRELGVWRSLLRLRATFAG [R22F], for which the protein stability index came out at 2.1. Turning to EPAGSLRELGVWRSLLRLRATPAG [R22P], the protein stability index was 2.14.

For the variant EPAGSLRELGVWRSLLRLRATEAG [R22E], the protein stability index came to 2.25.

For the variant EPAGSLRELGVWRSLLRLRATSAG [R22S], the protein stability index is 2.23.
